Results published in patent publication US20170114108A1.

Molecular target: H4 tail (residues 1-30) of the H4ac indicator (UniProt P62805)
Assay: cell-based or functional assay

percent of cells discriminated from autofluorescence (FACS), H4ac indicator, 1 µM SAHA: 5 % of cells | percent of cells discriminated from autofluorescence (FACS), H4ac indicator, 2.5 µM SAHA: 20 % of cells | percent of cells discriminated from autofluorescence (FACS), H4ac indicator, 7.5 µM SAHA: 40 % of cells | percent of cells discriminated from autofluorescence (FACS), H4ac indicator, 10 µM SAHA: 45 % of cells
Sequence: TATA binding protein (TBP)-associated factor II (TAFII) bromodomain
